Results reported in US20120064547A1 (PROBIODRUG, published 2012).
Where no end group is shown, it is not given here. Side-chain parts run from the residue outwards. [ ]: non-standard residue; d: D form. SMPH = maleimide crosslinker coupling C-terminal Cys to BSA; pGlu = O=C1CC[C@@H](C(=O)O)N1

How the values were obtained:
[1] = molecular target: T1, Aβ N3pE-40 peptide (N-terminal Glu (position 3 of Aβ) cyclized to pyroglutamate); assay: SPR Biacore 3000, AβpE3-40 on CM5 chip, bivalent analyte model
T1 construct: Synthetic peptide; also called AβpE3-40; amyloid β N3pE-40

[2] = molecular target: T2, PepSpot peptide No. 7 FRHDSGYEVHHQK; assay: PepSpot peptide membrane
T2 construct: Spotted on a PepSpot membrane; also called spot number 7
T2 peptide: FRHDSGYEVHHQK

[3] = molecular target: T3, PepSpot peptide No. 6 pEFRHDSGYEVHHQ; assay: PepSpot peptide membrane
T3 construct: Spotted on a PepSpot membrane; also called spot number 6; the specific Aβ N3pE-x spot
T3 peptide: [pGlu]FRHDSGYEVHHQ

[4] = molecular target: T4, PepSpot peptide No. 5 EFRHDSGYEVHHQ; assay: PepSpot peptide membrane
T4 construct: Spotted on a PepSpot membrane; also called spot number 5
T4 peptide: EFRHDSGYEVHHQ

[5] = molecular target: MCP-1 (human, UniProt P13500 24-99, limits assumed, N-terminal pyroglutamate (pGlu peptide)); assay: SPR (Biacore 3000), peptide on CM5 chip, antibody 25 µg/ml
[6] = molecular target: T5, Big Gastrin (human, UniProt P01350 59-92, limits assumed, N-terminal pyroglutamate (pGlu peptide)); assay: as above
T5 construct: Whole peptide or N-terminal region
T5 peptide (looked up): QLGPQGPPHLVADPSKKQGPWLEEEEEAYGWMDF

[7] = molecular target: T6, Gonadoliberin (human, UniProt P01148 24-33, N-terminal pyroglutamate (pGlu peptide)); assay: as above
T6 construct: Whole peptide or N-terminal region
T6 peptide (looked up): QHWSYGLRPG

[8] = molecular target: T7, Orexin A (human, UniProt O43612 34-66, limits assumed, N-terminal pyroglutamate (pGlu peptide)); assay: as above
T7 construct: Whole peptide or N-terminal region
T7 peptide (looked up): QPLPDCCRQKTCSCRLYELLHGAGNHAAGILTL

[9] = molecular target: T8, MCP-2 (human, UniProt P80075 24-99, limits assumed, N-terminal pyroglutamate (pGlu peptide)); assay: as above
T8 construct: Whole peptide or N-terminal region
T8 sequence (peptide, looked up): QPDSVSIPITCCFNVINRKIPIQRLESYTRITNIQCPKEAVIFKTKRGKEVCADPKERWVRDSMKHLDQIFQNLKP

[10] = molecular target: T9, Neurotensin (human, UniProt P30990 151-163, N-terminal pyroglutamate (pGlu peptide)); assay: as above
T9 construct: Whole peptide or N-terminal region

[11] = molecular target: isoDAE-BSA; assay: IgG ELISA, hybridoma supernatant on peptide-BSA coat
[12] = molecular target: N11pE-BSA; assay: as above
[13] = molecular target: N3E-BSA; assay: as above
[14] = molecular target: T10, BSA-pGlu-6166 peptide (pGlu-FRHDSGC conjugated to bovine serum albumin); assay: as above
T10 construct: also called N3pE-BSA
T10 peptide: [pGlu]FRHDSGC([SMPH-BSA])

[15] = molecular target: T1, Aβ N3pE-40 peptide; assay: SPR (Biacore, CM5 chip with coupled Aβ N3pE-40), overlay of hybridoma supernatants. The sheet carries the label Figure 6, but its content is that of the legend of FIG. 5
[16] = molecular target: N11E-BSA; assay: IgG ELISA, hybridoma supernatant on peptide-BSA coat
[17] = molecular target: T1, Aβ N3pE-40 peptide; assay: N3pE sandwich ELISA (4G8 capture, 6-1-6 detection), 3.125 pg/ml peptide
[18] = molecular target: T11, Aβ 4-40; assay: N3pE sandwich ELISA (4G8 capture, 6-1-6 detection), peptide at 100 pg/ml
T11 construct: No entry of its own

[19] = molecular target: Aβ 1-42; assay: as above
[20] = molecular target: T12, Aβ pE11-40 (N-terminal Glu (position 11 of Aβ) cyclized to pyroglutamate); assay: as above
T12 construct: No entry of its own
T12 peptide: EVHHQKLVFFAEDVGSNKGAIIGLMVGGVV

[21] = molecular target: T11, Aβ 4-40; assay: N3pE sandwich ELISA (4G8 capture, 6-1-6 detection), peptide at 25 pg/ml
[22] = molecular target: Aβ 1-42; assay: as above
[23] = molecular target: T12, Aβ pE11-40; assay: as above
[24] = molecular target: T1, Aβ N3pE-40 peptide; assay: DotBlot
[25] = molecular target: T11, Aβ 4-40; assay: N3pE sandwich ELISA (4G8 capture, 6-1-6 detection), peptide at 400 pg/ml
[26] = molecular target: Aβ 1-42; assay: as above
[27] = molecular target: T12, Aβ pE11-40; assay: as above
[28] = molecular target: T13, Collagen 1 (human); assay: SPR (Biacore 3000), peptide on CM5 chip, antibody 25 µg/ml
T13 construct: Whole protein or N-terminal region, and which collagen chain

[29] = molecular target: T11, Aβ 4-40; assay: N3pE sandwich ELISA (4G8 capture, 6-1-6 detection), peptide at 12.5 pg/ml
[30] = molecular target: Aβ 1-42; assay: as above
[31] = molecular target: T12, Aβ pE11-40; assay: as above
[32] = molecular target: T1, Aβ N3pE-40 peptide; assay: SPR Biacore 3000, AβpE3-40 on CM5 chip, antibody 1-100 nM, bivalent analyte model
[33] = molecular target: T11, Aβ 4-40; assay: N3pE sandwich ELISA (4G8 capture, 6-1-6 detection), peptide at 200 pg/ml
[34] = molecular target: Aβ 1-42; assay: as above
[35] = molecular target: T12, Aβ pE11-40; assay: as above
[36] = molecular target: T1, Aβ N3pE-40 peptide; assay: Biacore, peptide on CM5 chip, hybridoma supernatants
[37] = molecular target: T11, Aβ 4-40; assay: N3pE sandwich ELISA (4G8 capture, 6-1-6 detection), peptide at 800 pg/ml
[38] = molecular target: Aβ 1-42; assay: as above
[39] = molecular target: T12, Aβ pE11-40; assay: as above
[40] = molecular target: T11, Aβ 4-40; assay: N3pE sandwich ELISA (4G8 capture, 6-1-6 detection), peptide at 50 pg/ml
[41] = molecular target: Aβ 1-42; assay: as above
[42] = molecular target: T12, Aβ pE11-40; assay: as above

B1: Aβ 24-2-3 (monoclonal antibody of hybridoma cell line 24-2-3, DSM ACC 2926) (antibody, V domains shown)
VH: QVQLQQSGAELVRPGSSVKISCKASGYIFNNYWINWVKQRPGQGLEWIGQIYPGDGDTNYNGKFKGKATLTADKSSSTAYMQLSSLTSEDSAVYFCAREGYIVYWGQGTLVTVSA
VL: not shown
notes: Mouse hybridoma IgG; The entries as printed begin with a leader and end with the first residues of the constant region; Heavy chain amplified with primer MHCG2b, light chain with MKC; Tested as supernatant and as purified antibody; also called clone 24-2-3; N3pE antibody clone 24-2-3
- Kd [1]: 101 nM
- binding result [2]: binds
- binding result [3]: binds
- binding result [4]: binds
- % cross reactivity (against AβpE3-40) [5]: < 1%
- % cross reactivity (against AβpE3-40) [6]: < 1%
- % cross reactivity (against AβpE3-40) [7]: < 1%
- % cross reactivity (against AβpE3-40) [8]: < 1%
- % cross reactivity (against AβpE3-40) [9]: < 1%
- % cross reactivity (against AβpE3-40) [10]: < 1%
- signal in ELISA (OD) [11]: 0.014 OD 405 nm
- signal in ELISA (OD) [12]: 0.002 OD 405 nm
- signal in ELISA (OD) [13]: 0.218 OD 405 nm
- signal in ELISA (OD) [14]: 1.77 OD 405 nm

B2: Aβ 5-5-6 (monoclonal antibody of hybridoma cell line 5-5-6, DSM ACC 2923) (antibody, V domains shown)
VH: EVQLQQSGPELVKPGASMKISCKASGYSFTGYTMNWVKQSHGKNLEWIGLINPYSGVTRYNQKFKGKATLIVDKSSSTAYMELLSLTSEDSAVYYCTREAKREWDETYWGQGTLVTVSA
VL: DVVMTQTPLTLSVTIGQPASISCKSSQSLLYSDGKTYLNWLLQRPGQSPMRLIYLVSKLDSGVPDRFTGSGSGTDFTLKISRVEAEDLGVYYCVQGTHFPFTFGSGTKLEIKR
notes: Mouse hybridoma IgG; The entries as printed begin with a leader and end with the first residues of the constant region; Heavy chain amplified with primer MHCG1, light chain with MKC; Tested as hybridoma culture supernatant; also called clone 5-5-6; antibody 5-5-6
- binding result [2]: binds
- binding result [3]: binds
- binding result [4]: binds
- binding result [15]: binds
- signal in ELISA (OD) [11]: 0.015 OD 405 nm
- signal in ELISA (OD) [12]: 0.006 OD 405 nm
- signal in ELISA (OD) [13]: 0.126 OD 405 nm
- signal in ELISA (OD) [14]: 1.65 OD 405 nm
- signal in ELISA (OD) [16]: 0.004 OD 405 nm

B3: Aβ 6-1-6 (monoclonal antibody of hybridoma cell line 6-1-6, DSM ACC 2924) (antibody, V domains shown)
VH: EVQLQQSGPELVKPGASMKISCKASGYSFTGYTMNWVKQSHGKNLEWIGLINPYNGVTRYNQKFKGKATLIVDKSSSTAYMELLSLTSEDSAVYYCTREAKREWDETYWGQGTLVTVSA
VL: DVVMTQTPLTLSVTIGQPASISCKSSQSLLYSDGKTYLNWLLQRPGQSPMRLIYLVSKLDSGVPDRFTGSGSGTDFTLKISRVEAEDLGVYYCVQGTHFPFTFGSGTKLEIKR
notes: Mouse hybridoma IgG; The entries as printed begin with a leader and end with the first residues of the constant region; Heavy chain amplified with primer MHCG1, light chain with MKC; also called clone 6-1-6; N3pE antibody clone 6-1-6
- signal-to-noise ratio at the LOQ [17]: 1.3
- absorbance (450 nm corrected by 540 nm) [18]: 0.045 absorbance
- absorbance (450 nm corrected by 540 nm) [19]: 0.047 absorbance
- absorbance (450 nm corrected by 540 nm) [20]: 0.048 absorbance
- absorbance (450 nm corrected by 540 nm) [21]: 0.044 absorbance
- absorbance (450 nm corrected by 540 nm) [22]: 0.048 absorbance
- absorbance (450 nm corrected by 540 nm) [23]: 0.048 absorbance
- binding result [2]: binds
- binding result [3]: binds
- binding result [4]: binds
- fold sensitivity against clone 12-1 [24]: 125 fold
- absorbance (450 nm corrected by 540 nm) [25]: 0.044 absorbance
- absorbance (450 nm corrected by 540 nm) [26]: 0.048 absorbance
- absorbance (450 nm corrected by 540 nm) [27]: 0.044 absorbance
- % cross reactivity (against AβpE3-40) [5]: < 1%
- % cross reactivity (against AβpE3-40) [6]: < 1%
- % cross reactivity (against AβpE3-40) [7]: < 1%
- % cross reactivity (against AβpE3-40) [8]: < 1%
- % cross reactivity (against AβpE3-40) [9]: < 1%
- % cross reactivity (against AβpE3-40) [10]: < 1%
- % cross reactivity (against AβpE3-40) [28]: < 1%
- absorbance (450 nm corrected by 540 nm) [29]: 0.04 absorbance
- absorbance (450 nm corrected by 540 nm) [30]: 0.043 absorbance
- absorbance (450 nm corrected by 540 nm) [31]: 0.046 absorbance
- Kd [32]: 1.57 nM
- koff [32]: 0.000263 s⁻¹
- kon [32]: 167000 M⁻¹ s⁻¹
- absorbance (450 nm corrected by 540 nm) [33]: 0.046 absorbance
- absorbance (450 nm corrected by 540 nm) [34]: 0.048 absorbance
- absorbance (450 nm corrected by 540 nm) [35]: 0.048 absorbance
- association, fold of clone 12-1 [36]: ~5 fold
- absorbance (450 nm corrected by 540 nm) [37]: 0.055 absorbance
- absorbance (450 nm corrected by 540 nm) [38]: 0.053 absorbance
- absorbance (450 nm corrected by 540 nm) [39]: 0.047 absorbance
- absorbance (450 nm corrected by 540 nm) [40]: 0.044 absorbance
- absorbance (450 nm corrected by 540 nm) [41]: 0.05 absorbance
- absorbance (450 nm corrected by 540 nm) [42]: 0.045 absorbance
- signal in ELISA (OD) [11]: 0.013 OD 405 nm
- signal in ELISA (OD) [12]: 0.014 OD 405 nm
- signal in ELISA (OD) [13]: 0.125 OD 405 nm
- signal in ELISA (OD) [14]: 1.38 OD 405 nm
- signal in ELISA (OD) [16]: 0.007 OD 405 nm

B4: Aβ 17-4-3 (monoclonal antibody of hybridoma cell line 17-4-3, DSM ACC 2925) (antibody, V domains shown)
VH: EVKLVESGGGLVQPGGSRKLSCAASGFTFSDYGMAWVRQAPGKGPEWVAFISNLAYSIYYADTVTGRFTISRENAKNTLYLEMSSLRSEDTAMYYCARYDYDNILDYVMDYWGQGTSVTVSS
VL: DVVMTQTPLSLPVSLGDQASISCRSSQSLVHSDGNTYLHWYLQKPGQSPKLLIYKVSNRFSGVPDRFSGSGSGTDFTLKISRVEAEDLGVYFCSQSTHVPPTFGGGTKLEIKR
notes: Mouse hybridoma IgG; The entries as printed begin with a leader and end with the first residues of the constant region; Heavy chain amplified with primer MHCG2b, light chain with MKC; Tested as hybridoma culture supernatant; also called clone 17-4-3; antibody 17-4-3
- binding result [2]: binds
- binding result [3]: binds
- binding result [4]: binds
- binding result [15]: binds
- signal in ELISA (OD) [11]: 0.007 OD 405 nm
- signal in ELISA (OD) [12]: 0.004 OD 405 nm
- signal in ELISA (OD) [13]: 0.32 OD 405 nm
- signal in ELISA (OD) [14]: 1.92 OD 405 nm
- signal in ELISA (OD) [16]: 0.003 OD 405 nm
